Common to all, as to test: Crosslinking/co-immunoprecipitation/mass spectrometry (TMT quantitative proteomics) to identify irisin receptors
Common to all, as to format: binding

Experiment [1] addresses T1, MLO-Y4 cell surface proteins (Mus musculus, UniProt E9Q0C6).
T1 construct: endogenous in cells; host or cells: MLO-Y4
The settings on record: co-precipitated protein Gm14569 (E9Q0C6_MOUSE). Here is the method: (§1) MLO-Y4 cells were seeded on 30×150 mm type-I collagen coated dishes as described in cell culture experiment. At 60% cell density, medium was switched to FreeStyle™ 293 Expression medium. After 4 hours incubation, the cells were chilled on ice for 10 minutes, followed by treatment of 10 nM his-tag irisin or his-tag adipsin for 20 minutes. The cells were then incubated with 1.5 mM DTSSP for 30 minutes on ice to do cross-linking, after washing with 15 ml cold PBS twice. The cross-linking was quenched by addition of a final concentration of 20 mM Tris-pH 7.5. The cells were then harvested and homogenized in 1 ml RIPA buffer containing proteaseinhibitor cocktailand phosphatase-inhibitor cocktail. Whole-cell lysates were homogenized by 10 times passages through a 22G needle fitted to a 3 ml syringe. Homogenized samples were rotated gently in cold room for 20 minutes followed by 15,000×g centrifugation for 10 minutes. After addition of a final concentration of 10 mM imidazole, supernatants were incubated with 100 μl Ni-NTA agarose for 1 hour. After centrifugation at 500×g for 1 minute, the supernatants were aspirated and 1 ml cold RIPA buffer containing 10 mM imidazole were added to the agarose. After 10 minutes rotation in cold room, the supernatants were aspirated and 1 ml cold RIPA buffer containing 30 mM imidazole were added to the agarose. After repeating the washing 3 times, 0.8 ml RIPA buffer containing 250 mM imidazole was added and the agarose was gently rotated in a cold room for 20 minutes. After centrifugation at 1000×g for 2 minutes, the supernatants were transferred to 1.5 ml tube and incubated with 100 μl 0.2% sodium deoxycholate and 100 μl 10% trichloroacetic acid in ice for 1 hour. After centrifugation at 12,000×g for 10 minutes at 4° C., the supernatants were removed and 1 ml cold acetone was added to the pellets followed by vortexing for 10 seconds. After one more washing with cold acetone, the pellets were dried at 37° C., and 39 μl PBS and 13 μl 4×NuPAGE LDS were added to the pellets with a final concentration of 5 mM DTT. Solubilized proteins were incubated at 65° C. for 20 minutes followed by incubation with a final concentration of 14 mM iodoacetamide for 45 minutes in the dark. 38 μl samples were loaded to 4-12% gradient SDS-PAGE for separation followed by Coomassie Blue staining. The gels were submitted to quantitative proteomics.
(§2) For in-gel digestions, gels were stained with Coomassie Blue and were excised into 8 equal segments for control and irisin lanes. Gel pieces were destained and dehydrated with 100% acetonitrile, vacuumed dried, and digested in 25 mM HEPES (pH 8.5) with 500 ng sequencing grade trypsin (Promega) and incubated for an overnight at 37° C. (Shevchenko et al. (1996) Anal. Chem. 68:850-858). Digests were treated with 1% formic acid and purified using C18 Stage-Tips as previously described (Rappsilber et al. (2007) Nat. Protoc. 2:1896-1906). Peptides were eluted with 70% acetonitrile and 1% formic acid, then dried using a speedvac. Isobaric labeling of digested peptides was accomplished using 6-plex tandem mass tag (TMT) reagents (Thermo Fisher Scientific, Rockford, Ill.). Reagents, 5.0 mg, were dissolved in 252 μl acetonitrile (ACN) and 5 μl of the solution was added to the digested peptides dissolved in 25 μl of 200 mM HEPES, pH 8.5. After 1 hour at room temperature, the reaction was quenched by adding 1 μl of 5% hydroxylamine. Labeled peptides were combined and acidified prior to C18 Stage-Tips desalting.
(§3) All LC-MS/MS experiments were performed on an Orbitrap Fusion™ Lumos mass spectrometer (Thermo Fisher Scientific, San Jose, Calif., USA) coupled with a Proxeon EASY-nLC™ 1200 LC pump (Thermo Fisher Scientific). Peptides were separated on a 100 μm inner diameter microcapillary column packed with 35 cm of Accucore™ C18 resin (1.8 μm, 100 Å, Thermo Fisher Scientific). […]

Experiment [2] has as its target T2, MLO-Y4 cell surface proteins (Mus musculus, UniProt O70404).
T2 construct: endogenous in cells; host or cells: MLO-Y4
T2 sequence (O70404 1-101): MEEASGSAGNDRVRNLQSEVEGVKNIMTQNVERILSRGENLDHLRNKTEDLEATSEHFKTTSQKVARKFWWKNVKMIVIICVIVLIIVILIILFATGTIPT
The conditions noted are these: co-precipitated protein Vamp8 (VAMP8_MOUSE). Here is the method:
as §1, §2, §3

The target in experiment [3] is T3, MLO-Y4 cell surface proteins (Mus musculus, UniProt P56567).
T3 construct: endogenous in cells; host or cells: MLO-Y4
T3 sequence (P56567 1-97): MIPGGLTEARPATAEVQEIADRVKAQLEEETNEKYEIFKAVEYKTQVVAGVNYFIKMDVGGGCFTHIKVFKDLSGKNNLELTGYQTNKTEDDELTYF
The settings on record: co-precipitated protein Csta (CYTA_MOUSE). Here is the method: as §1, §2, §3

Experiment [4] has as its target T4, MLO-Y4 cell surface proteins (Mus musculus, UniProt P60843).
T4 construct: endogenous in cells; host or cells: MLO-Y4
The settings on record: co-precipitated protein Eif4a1 (IF4A1_MOUSE). The procedure: as §1, §2, §3

In experiment [5] the target is T5, MLO-Y4 cell surface proteins (Mus musculus, UniProt Q99LC5).
T5 construct: endogenous in cells; host or cells: MLO-Y4
T5 sequence (Q99LC5 20-333): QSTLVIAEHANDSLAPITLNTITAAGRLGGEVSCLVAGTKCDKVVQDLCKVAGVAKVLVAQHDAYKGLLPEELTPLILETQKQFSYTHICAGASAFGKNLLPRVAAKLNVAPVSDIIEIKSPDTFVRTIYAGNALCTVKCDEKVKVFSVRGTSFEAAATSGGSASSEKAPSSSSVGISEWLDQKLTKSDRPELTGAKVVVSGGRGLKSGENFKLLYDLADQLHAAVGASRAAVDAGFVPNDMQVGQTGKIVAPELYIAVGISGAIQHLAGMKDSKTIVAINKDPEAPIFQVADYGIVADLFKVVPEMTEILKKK
The conditions noted are these: co-precipitated protein Etfa (ETFA_MOUSE). The procedure:
as §1, §2, §3

Experiment [6] has as its target T6, MLO-Y4 cell surface proteins (Mus musculus, UniProt Q9CYR0).
T6 construct: endogenous in cells; host or cells: MLO-Y4
T6 sequence (Q9CYR0 17-152): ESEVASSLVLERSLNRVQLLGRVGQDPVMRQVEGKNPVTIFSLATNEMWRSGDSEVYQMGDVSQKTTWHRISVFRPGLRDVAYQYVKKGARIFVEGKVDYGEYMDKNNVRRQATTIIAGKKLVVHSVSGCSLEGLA
The settings on record: co-precipitated protein Ssbp1 (SSBP_MOUSE). Here is the method:
as §1, §2, §3

T1 sequence (E9Q0C6 whole entry): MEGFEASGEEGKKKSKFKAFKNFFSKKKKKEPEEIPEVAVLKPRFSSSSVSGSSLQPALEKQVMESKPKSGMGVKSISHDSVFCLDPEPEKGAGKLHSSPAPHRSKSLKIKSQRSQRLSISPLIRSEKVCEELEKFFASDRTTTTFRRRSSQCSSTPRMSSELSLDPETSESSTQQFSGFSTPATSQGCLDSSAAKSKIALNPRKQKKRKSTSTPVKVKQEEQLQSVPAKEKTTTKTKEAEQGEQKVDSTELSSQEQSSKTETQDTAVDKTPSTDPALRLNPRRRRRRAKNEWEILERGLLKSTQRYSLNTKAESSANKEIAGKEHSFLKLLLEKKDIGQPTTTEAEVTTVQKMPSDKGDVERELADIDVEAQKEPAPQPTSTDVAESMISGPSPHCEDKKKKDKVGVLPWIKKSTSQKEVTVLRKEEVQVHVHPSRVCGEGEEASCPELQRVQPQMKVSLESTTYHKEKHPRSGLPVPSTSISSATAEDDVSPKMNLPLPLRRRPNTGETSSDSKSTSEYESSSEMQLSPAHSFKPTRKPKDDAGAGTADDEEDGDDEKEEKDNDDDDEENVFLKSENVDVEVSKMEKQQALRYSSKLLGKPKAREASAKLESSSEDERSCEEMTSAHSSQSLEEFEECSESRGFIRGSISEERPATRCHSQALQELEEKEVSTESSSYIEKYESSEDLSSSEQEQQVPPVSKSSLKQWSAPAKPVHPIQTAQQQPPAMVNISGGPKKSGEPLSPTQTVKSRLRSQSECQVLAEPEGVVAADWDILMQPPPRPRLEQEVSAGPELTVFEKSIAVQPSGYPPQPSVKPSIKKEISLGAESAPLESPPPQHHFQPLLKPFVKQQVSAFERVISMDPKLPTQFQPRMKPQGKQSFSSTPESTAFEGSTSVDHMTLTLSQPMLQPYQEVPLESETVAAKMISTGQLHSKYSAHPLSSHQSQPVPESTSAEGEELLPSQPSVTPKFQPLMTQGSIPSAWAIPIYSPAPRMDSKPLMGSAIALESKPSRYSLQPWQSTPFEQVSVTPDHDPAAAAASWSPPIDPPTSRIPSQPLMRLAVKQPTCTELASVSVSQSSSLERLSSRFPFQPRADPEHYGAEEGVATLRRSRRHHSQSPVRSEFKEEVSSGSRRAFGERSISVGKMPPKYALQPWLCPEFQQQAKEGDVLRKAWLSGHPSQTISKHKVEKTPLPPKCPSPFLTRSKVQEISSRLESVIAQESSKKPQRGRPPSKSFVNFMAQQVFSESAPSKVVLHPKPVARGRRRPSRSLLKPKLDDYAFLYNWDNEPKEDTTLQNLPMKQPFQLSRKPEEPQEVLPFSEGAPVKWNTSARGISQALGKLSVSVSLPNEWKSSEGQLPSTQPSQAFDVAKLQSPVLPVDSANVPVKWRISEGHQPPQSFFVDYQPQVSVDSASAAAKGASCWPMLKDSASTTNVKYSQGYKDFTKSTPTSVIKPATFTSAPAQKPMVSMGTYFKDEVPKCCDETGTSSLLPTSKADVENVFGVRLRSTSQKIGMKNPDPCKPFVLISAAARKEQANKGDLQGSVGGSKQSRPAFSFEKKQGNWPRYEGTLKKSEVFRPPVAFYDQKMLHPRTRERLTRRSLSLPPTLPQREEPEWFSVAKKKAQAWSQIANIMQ
T4 sequence (P60843 whole entry): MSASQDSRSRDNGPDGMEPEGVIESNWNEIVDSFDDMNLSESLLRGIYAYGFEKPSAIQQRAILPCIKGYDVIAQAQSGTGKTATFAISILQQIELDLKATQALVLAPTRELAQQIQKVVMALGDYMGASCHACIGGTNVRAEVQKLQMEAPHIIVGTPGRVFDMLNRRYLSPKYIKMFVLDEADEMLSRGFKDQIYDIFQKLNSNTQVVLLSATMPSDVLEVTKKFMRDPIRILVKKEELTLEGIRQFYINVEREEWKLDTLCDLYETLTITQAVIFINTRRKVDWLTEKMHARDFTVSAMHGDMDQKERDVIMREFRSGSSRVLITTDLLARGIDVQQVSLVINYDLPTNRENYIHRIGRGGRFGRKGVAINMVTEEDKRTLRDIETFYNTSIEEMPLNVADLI

For adipsin, the TMT signal-to-noise ratio in experiment [1] is reported as 224.172; in experiment [2], 300.176; in experiment [3] it was 160.416; in experiment [4], 136.49; in experiment [5] it was 80.1458; in experiment [6], 432.759.
